# IntAct's records for PubMed 31481669
# B1: EKC/KEOPS complex subunit LAGE3 (Homo sapiens), Q14657 (parent)
# chain: MRDADADAGGGADGGDGRGGHSCRGGVDTAAAPAGGAPPAHAPGPGRDAASAARGSRMRPHIFTLSVPFPTPLEAEIAHGSLAPDAEPHQRVVGKDLTVSGRILVVRWKAEDCRLLRISVINFLDQLSLVVRTMQRFGPPVSR
# partner: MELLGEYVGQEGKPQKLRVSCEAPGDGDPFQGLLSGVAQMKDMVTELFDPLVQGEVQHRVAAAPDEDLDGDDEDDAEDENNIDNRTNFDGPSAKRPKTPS
# Variants of: B1
# Settings: with gon7_human GON7, Q9BXV9
row,Variant,effect of a mutation on the interaction
1,MRDADADAGGGADGGDGRGGHSCRGGVDTAAAPAGGAPPAHAPGPGRDAASAARGSRMRPHIFTLSVPFPTPLEAEIAHGSLAPDAEPHQRVVGKDLTVSGRILVFRWKAEDCRLLRISVINFLDQLSLVVRTMQRFGPPVSR [V106F],with no effect
2,MRDADADAGGGADGGDGRGGHSCRGGVDTAAAPAGGAPPAHAPGPGRDAASAARGSRMRPHIFTLSVPFPTPLEAEIAHGSLAPDAEPHQRVVGKDLTVSGRILVVRWKAEDCRLLRISVINFLDQLSLVVRTMQRSGPPVSR [F137S],with no effect
